The source of these data is patent US7867500B2, “Cofactor that modulates steroid receptor activities” (The United States of America as represented by the …, priority 2004, dated 2011).

Experiment [1] has as its target T1, TIF2.4 (Homo sapiens, UniProt Q15596).
T1 sequence (Q15596 624-1010 limits assumed): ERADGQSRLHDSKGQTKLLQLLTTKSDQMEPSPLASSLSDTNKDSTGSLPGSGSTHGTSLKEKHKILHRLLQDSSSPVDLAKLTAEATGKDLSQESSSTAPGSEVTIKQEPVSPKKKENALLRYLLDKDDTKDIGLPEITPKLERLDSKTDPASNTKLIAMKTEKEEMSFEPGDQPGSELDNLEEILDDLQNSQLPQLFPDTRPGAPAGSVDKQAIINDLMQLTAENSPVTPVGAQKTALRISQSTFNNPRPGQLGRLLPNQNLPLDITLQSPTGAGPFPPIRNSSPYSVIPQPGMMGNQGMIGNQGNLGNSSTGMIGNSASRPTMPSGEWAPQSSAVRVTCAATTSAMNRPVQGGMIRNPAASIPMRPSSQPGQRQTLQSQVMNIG
The experiment in a line: Cell-free pulldown of [35S]-labeled STAMP constructs by GST/TIF2.4. The experiment is classed as binding. The conditions noted are these: compared with GST itself. An excerpt:
FIGS. 7A and 7B illustrate the domains of STAMP that bind to TIF2.4 (FIG. 7A) and GR (FIG. 7B) in cell-free pulldown assays. Bacterially expressed GST-chimeras (GST/TIF2.4 in FIG. 7A and GST/STAMP segments in FIG. 7B) were immobilized on glutathione-Sepharose beads. The [^35S]methionine labeled STAMP fragments (FIG. 7A) or wild type GR (FIG. 7B) that were retained on the matrix by binding to the GST chimeras were separated on SDS PAGE gels and visualized by autoradiography. Specific binding was seen as when the GST/TIF2.4 or GST/STAMP bands were darker than the GST control bands. […] Similar results were obtained in a second experiment.
Template DNA plasmids (1 μg), 40 μl of Promega TNT (SP6) quick coupled transcription/translation system master mixture, and 2 μl of [^35S]methionine (Amersham Biosciences) were brought up to a total volume of 50 μl with H2O and incubated at 30° C. for 90 min according to the manufacturer's (Promega) recommendations. If hormone stimulation is needed, hormones (Dex, etc) were added into the transcription-translation reaction during the 30° C. incubation to both increase the stability of the synthesized GR and to cause activation of the GR-steroid complexes.
These assays were conducted generally as described (He et al., 2002). Sonicated bacterial lysates (1 ml) containing overexpressed GST, GST/TIF2.4, or GST/STAMP-956C were incubated with 160 μl of glutathione-Sepharose 4B beads for 1 hr at 0° C. The mixture was centrifuged (12,000×g), the supernatant was discarded, and the pellet was washed with phosphate-buffered saline (3×1 ml). Each 20-μl sample of immobilized GST or GST-chimera was then incubated overnight with 10 μl of ^35S-labeled in vitro translation product. The matrix was washed with phosphate-buffered saline (4×1 ml). The immobilized proteins were removed from the beads by heating at 90° C. for 5 min in 20 μl of 2×SDS loading buffer. The proteins were separated on 8-10% SDS-PAGE gels and detected by radio-autoradiography.

Experiment [2] deals with T1, TIF2.4. The experiment in a line: Mammalian two-hybrid assay in CV-1 cells (pFRLuc reporter) with TIF2.4. The experiment is classed as cell-based. Further details: expressed in transfected cells; host or cells: CV-1. An excerpt: FIG. 2A-2C illustrate the isolation and characterization of the partial clone of the protein that binds to TIF2.4. […] Five clones were obtained but only two (clones I and V) contained a protein that was needed for colony growth in the presence of the pSos/TIF2.4 fusion protein. After initial screening, only clone I (also named 6-6CL1) was selected for further investigation. FIG. 2B and FIG. 2C illustrate the selectivity of 6-6CL1 interactions with TIF2.4 in mammalian two-hybrid assays. Triplicate samples of CV-1 cells in 24-well plates were transiently transfected with the indicated GAL-DBD and VP16-AD plasmids along with the GAL4-regulated reporter, pFRLuc. The relative luciferase activity, normalized for the activity of the internal Renilla control, was determined and plotted as the average±S.D. The much lower activity of GAL/TIF2.4m123 was previously shown not to be due to unequal levels of protein expression (He et al., 2002). Similar results were obtained in three additional experiments. FIG. 2D and FIG. 2E provide a comparison of binding to 6-6CL1 by similarly positioned domains of SRC-1 and TIF2. Triplicate samples of CV-1 cells in 24-well plates were analyzed as in (B&C) after being transiently transfected with GAL±6-6CL1 constructs and pFRLuc reporter along with VP16 chimeras of SRC-1 (FIG. 2D) or TIF2 (FIG. 2E) segments. Similar results for SRC-1 were obtained in two additional experiments (ND=not determined). Western blots (FIG. 2F) indicate that the low activity of TIF2(1140C) (see FIG. 1) is not due to inadequate protein expression.
FIGS. 6A and 6B illustrate the domains of STAMP that interact with TIF2.4 (FIG. 6A) and GR (FIG. 6B) in the mammalian two-hybrid assay. […] These CV-1 cells were also transfected with GAL fused to the indicated segments of STAMP along with the FRLuc reporter and Renilla control plasmids. After determining the relative luciferase activities as described in FIG. 2B and 2C, the average values±S.E.M. from 2-5 experiments were plotted. The average fold increase for VP16/TIF2.4 with GAL/STAMP(623-834) in FIG. 6A was 11.0±3.0 (SEM, n=5) above the VP16 control. The values in parentheses above the data bars in FIG. 6B indicate the fold increased interaction ±1 μM Dex.
These assays were conducted as described (He et al., 2002). In particular, the recommended procedure for the Mammalian Matchmaker two-hybrid assay kit (Clontech) was modified slightly by changing from a chloramphenicol acetyltransferase reporter to a Luciferase Reporter pFRLuc (Stratagene), which is under the control of five repeats of the upstream activating sequence for the binding of GAL4.

B1: STAMP: SRC-1 and TIF2 Associated Modulatory Protein, 1277 amino acid human polypeptide, expressed from transfected plasmid (protein)
chain: MARDLEETASSSEDEEVISQEDHPCIMWTGGCRRIPVLVFHADAILTKDNNIRVIGERYHLSYKIVRTDSRLVRSILTAHGFHEVHPSSTDYNLMWTGSHLKPFLLRTLSEAQKVNHFPRSYELTRKDRLYKNIIRMQHTHGFKVFHILPQTFLLPAEYAEFCNSYSKDRGPWIVKPVASSRGRGVYLINNPNQISLEENILVSRYINNPLLIDDFKFDVRLYVLVTSYDPLVIYLYEEGLARFATVRYDQGAKNIRNQFMHLTNYSVNKKSGDYVSCDDPEVEDYGNKWSMSAMLRYLKQEGRDTTALMAHVEDLIIKTIISAELAIATACKTFVPHRSSCFELYGFDVLIDSTLKPWLLEVNLSPSLACDAPLDLKIKASMISDMFTVVGFVCQDPAQRASTRPIYPTFESSRRNPFQKPQRCRPLSASDAEMKNLVGSAREKGPGKLGGSVLGLSMEEIKVLRRVKEENDRRGGFIRIFPTSETWEIYGSYLEHKTSMNYMLATRLFQDRMTADGAPELKIESLNSKAKLHAALYERKLLSLEVRKRRRRSSRLRAMRPKYPVITQPAEMNVKTETESEEEEEVALDNEDEEQEASQEESAGFLRENQAKYTPSLTALVENTPKENSMKVREWNNKGGHCCKLETQELEPKFNLMQILQDNGNLSKMQARIAFSAYLQHVQIRLMKDSGGQTFSASWAAKEDEQMELVVRFLKRASNNLQHSLRMVLPSRRLALLERRRILAHQLGDFIIVYNKETEQMAEKKSKKKVEEEEEDGVNMENFQEFIRQASEAELEEVLTFYTQKNKSASVFLGTHSKISKNNNNYSDSGAKGDHPETIMEEVKIKPPKQQQTTEIHSDKLSRFTTSAEKEAKLVYSNSSSGPTATLQKIPNTHLSSVTTSDLSPGPCHHSSLSQIPSAIPSMPHQPTILLNTVSASASPCLHPGAQNIPSPTGLPRCRSGSHTIGPFSSFQSAAHIYSQKLSRPSSAKAGSCYLNKHHSGIAKTQKEGEDASLYSKRYNQSMVTAELQRLAEKQAARQYSPSSHINLLTQQVTNLNLATGIINRSSASAPPTLRPIISPSGPTWSTQSDPQAPENHSSSPGSRSLQTGGFAWEGEVENNVYSQATGVVPQHKYHPTAGSYQLQFALQQLEQQKLQSRQLLDQSRARHQAIFGSQTLPNSNLWTMNNGAGCRISSATASGQKPTTLPQKVVPPPSSCASLVPKPPPNHEQVLRRATSQKASKGSSAEGQLNGLQSSLNPAASVPITSSTDPAHTKI
With B1, the “binding to GST/TIF2.4” value in the experiment with TIF2.4 [1] was “weak interaction”.

B2: 6-6CL1: STAMP fragment amino acids 623-834, coactivator interaction domain (CID) (protein)
chain: ENTPKENSMKVREWNNKGGHCCKLETQELEPKFNLMQILQDNGNLSKMQARIAFSAYLQHVQIRLMKDSGGQTFSASWAAKEDEQMELVVRFLKRASNNLQHSLRMVLPSRRLALLERRRILAHQLGDFIIVYNKETEQMAEKKSKKKVEEEEEDGVNMENFQEFIRQASEAELEEVLTFYTQKNKSASVFLGTHSKISKNNNNYSDSGAKG
Consider B2, for which the “binding to GST/TIF2.4” value in the experiment with TIF2.4 [1] is on record as “strong binding”. For the same molecule, the “interaction with TIF2.4” value with TIF2.4 [2] is reported as “did interact”. Besides, the “average fold increase for VP16/TIF2.4 above the VP16 control” value in the experiment with TIF2.4 [2] (SEM, n=5) worked out at 11.0±3.0 fold.

B3: STAMP834C: STAMP fragment amino acids 834-1277, receptor interaction domain (RID) (protein)
chain: GDHPETIMEEVKIKPPKQQQTTEIHSDKLSRFTTSAEKEAKLVYSNSSSGPTATLQKIPNTHLSSVTTSDLSPGPCHHSSLSQIPSAIPSMPHQPTILLNTVSASASPCLHPGAQNIPSPTGLPRCRSGSHTIGPFSSFQSAAHIYSQKLSRPSSAKAGSCYLNKHHSGIAKTQKEGEDASLYSKRYNQSMVTAELQRLAEKQAARQYSPSSHINLLTQQVTNLNLATGIINRSSASAPPTLRPIISPSGPTWSTQSDPQAPENHSSSPGSRSLQTGGFAWEGEVENNVYSQATGVVPQHKYHPTAGSYQLQFALQQLEQQKLQSRQLLDQSRARHQAIFGSQTLPNSNLWTMNNGAGCRISSATASGQKPTTLPQKVVPPPSSCASLVPKPPPNHEQVLRRATSQKASKGSSAEGQLNGLQSSLNPAASVPITSSTDPAHTKI
As to B3, in the experiment with TIF2.4 [1], the “binding to GST/TIF2.4” value was “neither the amino terminal (N623) nor the C-terminal (834C) fragments exhibit significantly more binding to GST/TIF2.4 than to GST itself”. The “interaction with TIF2.4” value with TIF2.4 [2] was “weak response”.
